Test results as given in patent publication US5098841A, “Process for the preparation of hydroxy acids” (CIBA-GEIGY Corporation, priority 1988, dated 1992).

Legend:
[1] = Specific activity of commercially available dehydrogenases based on pyruvate; type: biochemical; conditions: substrate pyruvate
Text: (§1) The continuous reaction method, especially in an enzyme membrane reactor, is preferred for both processes.
(§2) U--unit of enzyme activity (under defined reaction conditions, 1 U produces a substance conversion of 1 μmol/min)

[2] = Specific activity of commercially available dehydrogenases based on 2-keto-4-phenylbutyric acid; type: biochemical; conditions: substrate 2-keto-4-phenylbutyric acid
Text: as §1, §2

L-LDH bovine heart Fluka 61310: commercially available L-lactate dehydrogenase from bovine heart, Fluka 61310
U/mg protein based on pyruvate [1]: 300 U/mg protein
U/mg protein based on 2-keto-4-phenylbutyric acid [2]: 0.07 U/mg protein
